Test system: Escherichia coli TOP10
Experiment: shrunken log2 fold change of peptide-encoding DNA abundance (4.5 h post-induction vs induction); higher = less antimicrobial activity (less host growth inhibition)
Conditions: time post-induction: 4.5 h; library: site-saturation at positions 5, 18, 19, 20
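Note: peptides expressed intracellularly from a pBAD plasmid library in pooled LB shake-flask culture, induced with 0.3% L-arabinose, DNA abundance read by NGS, three biological replicates, DESeq2 with apeglm shrinkage.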

| Sequence | shrunken log2 fold change |
| --- | --- |
| RRIRYRPPRLPRPRPRPHVIPRP | -0.448 |
| RRIRYRPPRLPRPRPRPHWYPRP | -1.02 |
| RRIRYRPPRLPRPRPRPHYAPRP | -0.0853 |
| RRIRYRPPRLPRPRPRPIAKPRP | 0.0673 |
| RRIRYRPPRLPRPRPRPIARPRP | 0.00902 |
| RRIRYRPPRLPRPRPRPICGPRP | -0.359 |
| RRIRYRPPRLPRPRPRPICYPRP | -0.691 |
| RRIRYRPPRLPRPRPRPIDHPRP | -0.0413 |
| RRIRYRPPRLPRPRPRPIGRPRP | -0.0417 |
| RRIRYRPPRLPRPRPRPIKDPRP | -0.171 |
| RRIRYRPPRLPRPRPRPILNPRP | -0.768 |
| RRIRYRPPRLPRPRPRPIMPPRP | -0.948 |
| RRIRYRPPRLPRPRPRPINCPRP | -0.122 |
| RRIRYRPPRLPRPRPRPINWPRP | -0.446 |
| RRIRYRPPRLPRPRPRPIPIPRP | -0.168 |
| RRIRYRPPRLPRPRPRPIQWPRP | -0.00101 |
| RRIRYRPPRLPRPRPRPIRVPRP | -0.0013 |
| RRIRYRPPRLPRPRPRPISFPRP | -0.00256 |
| RRIRYRPPRLPRPRPRPITRPRP | 0.0448 |
| RRIRYRPPRLPRPRPRPITWPRP | -0.353 |
| RRIRYRPPRLPRPRPRPIVDPRP | -0.268 |
| RRIRYRPPRLPRPRPRPIYTPRP | -0.943 |
| RRIRYRPPRLPRPRPRPKAHPRP | -0.376 |
| RRIRYRPPRLPRPRPRPKCDPRP | -0.529 |
| RRIRYRPPRLPRPRPRPKFCPRP | -0.291 |

| Sequence | shrunken log2 fold change |
| --- | --- |
| RRIRYRPPRLPRPRPRPKFEPRP | -0.0286 |
| RRIRYRPPRLPRPRPRPKFIPRP | -1.39 |
| RRIRYRPPRLPRPRPRPKHIPRP | -0.66 |
| RRIRYRPPRLPRPRPRPKIFPRP | -0.297 |
| RRIRYRPPRLPRPRPRPKIKPRP | -0.583 |
| RRIRYRPPRLPRPRPRPKKQPRP | -0.00353 |
| RRIRYRPPRLPRPRPRPKLNPRP | -0.689 |
| RRIRYRPPRLPRPRPRPKMIPRP | -0.537 |
| RRIRYRPPRLPRPRPRPKQEPRP | -0.017 |
| RRIRYRPPRLPRPRPRPKRFPRP | 0.00705 |
| RRIRYRPPRLPRPRPRPKRKPRP | -0.128 |
| RRIRYRPPRLPRPRPRPKRVPRP | 0.0354 |
| RRIRYRPPRLPRPRPRPKTEPRP | -0.00177 |
| RRIRYRPPRLPRPRPRPKTHPRP | -0.661 |
| RRIRYRPPRLPRPRPRPKVYPRP | -1.13 |
| RRIRYRPPRLPRPRPRPKYDPRP | -0.324 |
| RRIRYRPPRLPRPRPRPKYTPRP | -0.415 |
| RRIRYRPPRLPRPRPRPLATPRP | -0.378 |
| RRIRYRPPRLPRPRPRPLCKPRP | -0.588 |
| RRIRYRPPRLPRPRPRPLCQPRP | -0.648 |
| RRIRYRPPRLPRPRPRPLDQPRP | -0.169 |
| RRIRYRPPRLPRPRPRPLDVPRP | 0.0153 |
| RRIRYRPPRLPRPRPRPLETPRP | -0.0196 |
| RRIRYRPPRLPRPRPRPLGEPRP | -0.172 |
| RRIRYRPPRLPRPRPRPLHEPRP | -0.343 |

| Sequence | shrunken log2 fold change |
| --- | --- |
| RRIRYRPPRLPRPRPRPLHIPRP | -0.271 |
| RRIRYRPPRLPRPRPRPLKQPRP | -0.0485 |
| RRIRYRPPRLPRPRPRPLMAPRP | -0.681 |
| RRIRYRPPRLPRPRPRPLMCPRP | -0.632 |
| RRIRYRPPRLPRPRPRPLMEPRP | -0.318 |
| RRIRYRPPRLPRPRPRPLMFPRP | -1.04 |
| RRIRYRPPRLPRPRPRPLMKPRP | -0.179 |
| RRIRYRPPRLPRPRPRPLNGPRP | -0.159 |
| RRIRYRPPRLPRPRPRPLPDPRP | -0.108 |
| RRIRYRPPRLPRPRPRPLPGPRP | -0.139 |
| RRIRYRPPRLPRPRPRPLQIPRP | -0.51 |
| RRIRYRPPRLPRPRPRPLQVPRP | -0.0974 |
| RRIRYRPPRLPRPRPRPLRNPRP | -0.277 |
| RRIRYRPPRLPRPRPRPLTCPRP | -0.566 |
| RRIRYRPPRLPRPRPRPLTNPRP | -0.206 |
| RRIRYRPPRLPRPRPRPLTQPRP | -0.416 |
| RRIRYRPPRLPRPRPRPLTVPRP | -0.146 |
| RRIRYRPPRLPRPRPRPLTYPRP | -0.144 |
| RRIRYRPPRLPRPRPRPLVWPRP | 0.00227 |
| RRIRYRPPRLPRPRPRPMAQPRP | -0.0848 |
| RRIRYRPPRLPRPRPRPMCHPRP | -0.0146 |
| RRIRYRPPRLPRPRPRPMCMPRP | -0.214 |
| RRIRYRPPRLPRPRPRPMEEPRP | -0.138 |
| RRIRYRPPRLPRPRPRPMERPRP | 0.0776 |
| RRIRYRPPRLPRPRPRPMFDPRP | -1.4 |

| Sequence | shrunken log2 fold change |
| --- | --- |
| RRIRYRPPRLPRPRPRPMGHPRP | -1.16 |
| RRIRYRPPRLPRPRPRPMHWPRP | -0.597 |
| RRIRYRPPRLPRPRPRPMITPRP | -0.386 |
| RRIRYRPPRLPRPRPRPMLKPRP | -0.374 |
| RRIRYRPPRLPRPRPRPMNLPRP | -0.0114 |
| RRIRYRPPRLPRPRPRPMPQPRP | -0.318 |
| RRIRYRPPRLPRPRPRPMRTPRP | 0.176 |
| RRIRYRPPRLPRPRPRPMSHPRP | -0.425 |
| RRIRYRPPRLPRPRPRPMSQPRP | -0.0802 |
| RRIRYRPPRLPRPRPRPMTAPRP | -0.0394 |
| RRIRYRPPRLPRPRPRPNAMPRP | -0.166 |
| RRIRYRPPRLPRPRPRPNAPPRP | -0.228 |
| RRIRYRPPRLPRPRPRPNCLPRP | -0.942 |
| RRIRYRPPRLPRPRPRPNEAPRP | -0.017 |
| RRIRYRPPRLPRPRPRPNFQPRP | -0.578 |
| RRIRYRPPRLPRPRPRPNHQPRP | -0.573 |
| RRIRYRPPRLPRPRPRPNMHPRP | -0.934 |
| RRIRYRPPRLPRPRPRPNNHPRP | -1.1 |
| RRIRYRPPRLPRPRPRPNNKPRP | -1.17 |
| RRIRYRPPRLPRPRPRPNPQPRP | -0.0909 |
| RRIRYRPPRLPRPRPRPNRVPRP | -0.172 |
| RRIRYRPPRLPRPRPRPNSCPRP | 0.0432 |
| RRIRYRPPRLPRPRPRPNSFPRP | -0.0457 |
| RRIRYRPPRLPRPRPRPNVDPRP | -1.26 |
| RRIRYRPPRLPRPRPRPNVHPRP | -0.745 |

| Sequence | shrunken log2 fold change |
| --- | --- |
| RRIRYRPPRLPRPRPRPPCPPRP | -0.141 |
| RRIRYRPPRLPRPRPRPPCWPRP | 0.263 |
| RRIRYRPPRLPRPRPRPPGIPRP | 0.0348 |
| RRIRYRPPRLPRPRPRPPGRPRP | 0.643 |
| RRIRYRPPRLPRPRPRPPHTPRP | -0.656 |
| RRIRYRPPRLPRPRPRPPIIPRP | -0.148 |
| RRIRYRPPRLPRPRPRPPLLPRP | -0.385 |
| RRIRYRPPRLPRPRPRPPLPPRP | 0.184 |
| RRIRYRPPRLPRPRPRPPLQPRP | 0.187 |
| RRIRYRPPRLPRPRPRPPMCPRP | -0.0507 |
| RRIRYRPPRLPRPRPRPPMRPRP | 0.317 |
| RRIRYRPPRLPRPRPRPPMYPRP | -1.28 |
| RRIRYRPPRLPRPRPRPPNAPRP | 0.153 |
| RRIRYRPPRLPRPRPRPPNPPRP | -0.145 |
| RRIRYRPPRLPRPRPRPPPFPRP | 0.328 |
| RRIRYRPPRLPRPRPRPPRNPRP | 0.142 |
| RRIRYRPPRLPRPRPRPPSVPRP | -0.209 |
| RRIRYRPPRLPRPRPRPPTHPRP | -0.251 |
| RRIRYRPPRLPRPRPRPPTKPRP | 0.444 |
| RRIRYRPPRLPRPRPRPPVDPRP | 0.155 |
| RRIRYRPPRLPRPRPRPPWFPRP | -0.205 |
| RRIRYRPPRLPRPRPRPPWLPRP | 1.46 |
| RRIRYRPPRLPRPRPRPPYRPRP | -0.714 |
| RRIRYRPPRLPRPRPRPPYYPRP | -0.214 |
| RRIRYRPPRLPRPRPRPQAKPRP | -0.0419 |

| Sequence | shrunken log2 fold change |
| --- | --- |
| RRIRYRPPRLPRPRPRPQDHPRP | 0.0457 |
| RRIRYRPPRLPRPRPRPQFPPRP | -0.0877 |
| RRIRYRPPRLPRPRPRPQFYPRP | -1.86 |
| RRIRYRPPRLPRPRPRPQGDPRP | -0.074 |
| RRIRYRPPRLPRPRPRPQHKPRP | -0.547 |
| RRIRYRPPRLPRPRPRPQIFPRP | 0.0295 |
| RRIRYRPPRLPRPRPRPQLKPRP | -0.526 |
| RRIRYRPPRLPRPRPRPQLPPRP | -0.0333 |
| RRIRYRPPRLPRPRPRPQLSPRP | -0.0974 |
| RRIRYRPPRLPRPRPRPQLWPRP | 0.0782 |
| RRIRYRPPRLPRPRPRPQNAPRP | -0.369 |
| RRIRYRPPRLPRPRPRPQPFPRP | 0.00414 |
| RRIRYRPPRLPRPRPRPQPNPRP | -0.226 |
| RRIRYRPPRLPRPRPRPQPTPRP | 0.0156 |
| RRIRYRPPRLPRPRPRPQQYPRP | -1 |
| RRIRYRPPRLPRPRPRPQRRPRP | -0.261 |
| RRIRYRPPRLPRPRPRPQRSPRP | -0.129 |
| RRIRYRPPRLPRPRPRPQSAPRP | -0.21 |
| RRIRYRPPRLPRPRPRPQSSPRP | -0.687 |
| RRIRYRPPRLPRPRPRPQTVPRP | -0.261 |
| RRIRYRPPRLPRPRPRPQWDPRP | -0.842 |
| RRIRYRPPRLPRPRPRPQWMPRP | -0.19 |
| RRIRYRPPRLPRPRPRPQYPPRP | -0.733 |
| RRIRYRPPRLPRPRPRPQYVPRP | -0.0294 |
| RRIRYRPPRLPRPRPRPRAGPRP | 0.461 |

From the supplement of paper PMC9112550, “Optimization of the antimicrobial peptide Bac7 by deep mutational scanning” (BMC Biology, 2022)
